The text below walks through data of the supplement of paper PMC9112550, “Optimization of the antimicrobial peptide Bac7 by deep mutational scanning” (BMC Biology, 2022).
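Note: peptides expressed intracellularly from a pBAD plasmid library in pooled LB shake-flask culture, induced with 0.3% L-arabinose, DNA abundance read by NGS, three biological replicates, DESeq2 with apeglm shrinkage.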

The series deals with Escherichia coli TOP10. The experiment in a line: shrunken log2 fold change of peptide-encoding DNA abundance (4.5 h post-induction vs induction); higher = less antimicrobial activity (less host growth inhibition). The following applies: time post-induction: 4.5 h; library: site-saturation at positions 5, 18, 19, 20.
Take RRIRCRPPRLPRPRPRPDDVPRP: the “shrunken log2 fold change” value was -0.0387. Under RRIRMRPPRLPRPRPRPVDEPRP stands -0.00101; under RRIRLRPPRLPRPRPRPYWWPRP, 0.0346; under RRIRWRPPRLPRPRPRPYTFPRP, 0.0563. Consider RRIRRRPPRLPRPRPRPEKAPRP, for which the “shrunken log2 fold change” value came to 0.0304. On to RRIRARPPRLPRPRPRPQCWPRP, for which the “shrunken log2 fold change” value amounted to 0.173.

Consider RRIRDRPPRLPRPRPRPEFMPRP, for which the “shrunken log2 fold change” value came out at 0.419. In the case of RRIRSRPPRLPRPRPRPRYYPRP it was -0.554; in that of RRIRQRPPRLPRPRPRPKRRPRP, 0.0204; in that of RRIRDRPPRLPRPRPRPGGTPRP, 0.454. In the case of RRIRLRPPRLPRPRPRPQRAPRP it was 0.309; in that of RRIRMRPPRLPRPRPRPRQPPRP, 0.805. As for RRIRSRPPRLPRPRPRPDGIPRP, the “shrunken log2 fold change” value was -0.0491. Under RRIRTRPPRLPRPRPRPYMGPRP stands -1.93. Take RRIRPRPPRLPRPRPRPQKAPRP: the “shrunken log2 fold change” value came to 1.05. Turning to RRIRHRPPRLPRPRPRPPADPRP, the “shrunken log2 fold change” value is 0.492. In the case of RRIRLRPPRLPRPRPRPPAWPRP it was 0.98. For RRIRFRPPRLPRPRPRPKAEPRP, the “shrunken log2 fold change” value came out at 0.00911.

Consider RRIRPRPPRLPRPRPRPDRNPRP, for which the “shrunken log2 fold change” value is -0.0925. Under RRIRCRPPRLPRPRPRPFAPPRP stands 0.229; under RRIRLRPPRLPRPRPRPYYYPRP, -1.03. With RRIRERPPRLPRPRPRPSTTPRP, the “shrunken log2 fold change” value was -0.285.

Take RRIRARPPRLPRPRPRPSDQPRP: the “shrunken log2 fold change” value was -0.0615. In the case of RRIRIRPPRLPRPRPRPNECPRP, the “shrunken log2 fold change” value is -0.0258. In the case of RRIRNRPPRLPRPRPRPGEKPRP it was -0.01; in that of RRIRCRPPRLPRPRPRPMFSPRP, -0.48; in that of RRIRGRPPRLPRPRPRPHWFPRP, 0.156. Under RRIRSRPPRLPRPRPRPTIKPRP stands -0.29; under RRIRDRPPRLPRPRPRPTCIPRP, 0.0607.

RRIRNRPPRLPRPRPRPEKSPRP: the “shrunken log2 fold change” value turned out to be 0.31. In the case of RRIRARPPRLPRPRPRPQHHPRP it was -0.298; in that of RRIRERPPRLPRPRPRPGLGPRP, 0.602. For RRIRVRPPRLPRPRPRPCIEPRP, the “shrunken log2 fold change” value is -0.351. Turning to RRIRLRPPRLPRPRPRPKIIPRP, the “shrunken log2 fold change” value was -0.69. Take RRIRERPPRLPRPRPRPFWEPRP: the “shrunken log2 fold change” value is -0.56. Under RRIRQRPPRLPRPRPRPDPQPRP stands -0.159; under RRIRVRPPRLPRPRPRPSAHPRP, -0.0182; under RRIRIRPPRLPRPRPRPPFNPRP, -0.473. Under RRIRFRPPRLPRPRPRPFFKPRP stands -0.251. On to RRIRDRPPRLPRPRPRPDACPRP, for which the “shrunken log2 fold change” value is 0.52. In the case of RRIRIRPPRLPRPRPRPDYPPRP it was -0.584.

Turning to RRIRDRPPRLPRPRPRPEFKPRP, the “shrunken log2 fold change” value is -0.0319.

With RRIRHRPPRLPRPRPRPEQMPRP, the “shrunken log2 fold change” value was found to be 0.023.

Regarding RRIRLRPPRLPRPRPRPYNYPRP, the “shrunken log2 fold change” value is -0.439. Under RRIRWRPPRLPRPRPRPHVFPRP stands -0.154.

Take RRIRPRPPRLPRPRPRPVSMPRP: the “shrunken log2 fold change” value worked out at 1.41. As for RRIRGRPPRLPRPRPRPWELPRP, the “shrunken log2 fold change” value is 0.136. As to RRIRMRPPRLPRPRPRPMSRPRP, the “shrunken log2 fold change” value is 0.0997. Under RRIRIRPPRLPRPRPRPGPCPRP stands 0.255; under RRIRRRPPRLPRPRPRPAKNPRP, 0.279; under RRIRFRPPRLPRPRPRPNHMPRP, -0.567. In the case of RRIRHRPPRLPRPRPRPNHLPRP it was -0.0856.

As to RRIRYRPPRLPRPRPRPVGEPRP, the “shrunken log2 fold change” value stood at 0.207. Under RRIRNRPPRLPRPRPRPHRAPRP stands 0.264. Under RRIRSRPPRLPRPRPRPDNTPRP stands -0.44; under RRIRDRPPRLPRPRPRPESAPRP, 0.345. In the case of RRIRNRPPRLPRPRPRPHKFPRP, the “shrunken log2 fold change” value was -0.231. On to RRIRVRPPRLPRPRPRPEPDPRP, for which the “shrunken log2 fold change” value was determined as 0.242.

With RRIRQRPPRLPRPRPRPCDMPRP, the “shrunken log2 fold change” value was -0.129. On to RRIRERPPRLPRPRPRPRWQPRP, for which the “shrunken log2 fold change” value was found to be 0.245.

Take RRIRNRPPRLPRPRPRPRIGPRP: the “shrunken log2 fold change” value came to 0.0705. Under RRIRSRPPRLPRPRPRPWKPPRP stands -0.0117.

Take RRIRYRPPRLPRPRPRPGCDPRP: the “shrunken log2 fold change” value was -0.282. Under RRIRDRPPRLPRPRPRPIHWPRP stands -0.18; under RRIRYRPPRLPRPRPRPKMYPRP, -1.46; under RRIRVRPPRLPRPRPRPNTNPRP, -0.421. In the case of RRIRQRPPRLPRPRPRPFWCPRP it was 0.0825; in that of RRIRVRPPRLPRPRPRPLASPRP, -0.214. In the case of RRIRIRPPRLPRPRPRPQWDPRP it was 0.92; in that of RRIRYRPPRLPRPRPRPSDLPRP, -1.92; in that of RRIRIRPPRLPRPRPRPFCFPRP, -0.33. Take RRIRFRPPRLPRPRPRPLLHPRP: the “shrunken log2 fold change” value was -0.247. In the case of RRIRQRPPRLPRPRPRPMFCPRP it was 0.0313; in that of RRIRARPPRLPRPRPRPRMDPRP, 0.356. Take RRIRLRPPRLPRPRPRPCANPRP: the “shrunken log2 fold change” value is -0.212. RRIRNRPPRLPRPRPRPLNKPRP: the “shrunken log2 fold change” value is -0.256.

Regarding RRIRFRPPRLPRPRPRPWSAPRP, the “shrunken log2 fold change” value was -0.429.

For the sequence RRIRHRPPRLPRPRPRPTRMPRP, the “shrunken log2 fold change” value was 0.237. Under RRIRWRPPRLPRPRPRPSNLPRP stands -0.0676; under RRIRQRPPRLPRPRPRPDCVPRP, -0.0384; under RRIRSRPPRLPRPRPRPHDAPRP, -0.142.

As to RRIRKRPPRLPRPRPRPCCWPRP, the “shrunken log2 fold change” value stood at 1.1.

For the sequence RRIRMRPPRLPRPRPRPKGDPRP, the “shrunken log2 fold change” value came to 2.08. In the case of RRIRDRPPRLPRPRPRPDYDPRP it was -0.0133; in that of RRIRLRPPRLPRPRPRPTNPPRP, -0.348; in that of RRIRTRPPRLPRPRPRPDKPPRP, 0.0877. Under RRIRPRPPRLPRPRPRPKFYPRP stands -0.351; under RRIRTRPPRLPRPRPRPGNWPRP, 0.275. In the case of RRIRKRPPRLPRPRPRPYLMPRP it was -0.0192. RRIRVRPPRLPRPRPRPAYFPRP: the “shrunken log2 fold change” value is -0.325. Under RRIRQRPPRLPRPRPRPTTYPRP stands -0.282; under RRIRPRPPRLPRPRPRPKVVPRP, 0.454. For the sequence RRIRHRPPRLPRPRPRPNPCPRP, the “shrunken log2 fold change” value is -0.132. Under RRIRKRPPRLPRPRPRPTKVPRP stands 1.21; under RRIRRRPPRLPRPRPRPYTRPRP, 0.000194; under RRIRYRPPRLPRPRPRPMRCPRP, -0.000627. In the case of RRIRKRPPRLPRPRPRPITKPRP it was -0.0212; in that of RRIRRRPPRLPRPRPRPGPIPRP, 0.174.

For the sequence RRIRNRPPRLPRPRPRPIMIPRP, the “shrunken log2 fold change” value was -0.363.

Regarding RRIRCRPPRLPRPRPRPESGPRP, the “shrunken log2 fold change” value amounted to 0.0145. For RRIRLRPPRLPRPRPRPNNGPRP, the “shrunken log2 fold change” value amounted to 0.0736. In the case of RRIRRRPPRLPRPRPRPACQPRP it was 0.835; in that of RRIRCRPPRLPRPRPRPSVWPRP, 0.238. In the case of RRIRPRPPRLPRPRPRPFTPPRP, the “shrunken log2 fold change” value was -0.112. In the case of RRIRLRPPRLPRPRPRPMYFPRP it was -0.252; in that of RRIRLRPPRLPRPRPRPDILPRP, -0.154. With RRIRTRPPRLPRPRPRPGQLPRP, the “shrunken log2 fold change” value turned out to be 0.226. Under RRIRYRPPRLPRPRPRPHYWPRP stands -0.582. Turning to RRIRSRPPRLPRPRPRPKEEPRP, the “shrunken log2 fold change” value turned out to be 0.0302.

Turning to RRIRLRPPRLPRPRPRPPLGPRP, the “shrunken log2 fold change” value amounted to 0.409.

On to RRIRWRPPRLPRPRPRPSGCPRP, for which the “shrunken log2 fold change” value is -0.0452. On to RRIRLRPPRLPRPRPRPKCTPRP, for which the “shrunken log2 fold change” value was found to be 0.0446. On to RRIRARPPRLPRPRPRPPMDPRP, for which the “shrunken log2 fold change” value worked out at 0.515. Under RRIRLRPPRLPRPRPRPYQKPRP stands 0.00934. Turning to RRIRVRPPRLPRPRPRPPPYPRP, the “shrunken log2 fold change” value came to 0.233. For RRIRIRPPRLPRPRPRPAEIPRP, the “shrunken log2 fold change” value was -0.484. In the case of RRIRCRPPRLPRPRPRPEGRPRP it was 0.0128; in that of RRIRTRPPRLPRPRPRPLQYPRP, -0.0374; in that of RRIRGRPPRLPRPRPRPYNNPRP, -0.321. Under RRIRQRPPRLPRPRPRPSDEPRP stands -0.275; under RRIRLRPPRLPRPRPRPRPFPRP, 0.358. In the case of RRIRKRPPRLPRPRPRPYTRPRP it was -0.167.

Consider RRIRMRPPRLPRPRPRPHWSPRP, for which the “shrunken log2 fold change” value worked out at 0.0857. RRIRVRPPRLPRPRPRPHHKPRP: the “shrunken log2 fold change” value was -0.477. As to RRIRNRPPRLPRPRPRPSDDPRP, the “shrunken log2 fold change” value is -0.0915.
